In article PMC9770967, “Native holdup (nHU) to measure binding affinities from cell extracts” (Science Advances, 2022):

What was measured:
Type in all cases: binding, human
SCRIB_PDZ_1 = assay: nHU-MS, SCRIB_PDZ_1 bait, total Jurkat extracts (Exploris MS)
Text: (§1) To further establish the repeatability and robustness of the nHU-MS assay, we repeated the experiments using a different mass spectrometer and six different PDZ domain baits taken from SCRIB (PDZ_1 and PDZ_2), discs large MAGUK scaffold protein 1 (DLG1, PDZ_1, and PDZ_2), Tax1 binding protein 3 (TAX1BP3), and SNX27 (fig. S3B and table S1). […] Of the studied baits, the PDZ domain of SNX27 turned out to be the most promiscuous with 103 statistically significant interaction partners (while 180 SNX27 binding partners were identified in total on the basis of the three independent nHU-MS experiments).
(§2) For saturating streptavidin resin with biotinylated peptides or biotin, 50 μl of streptavidin resin was mixed with biotin or peptide at 40 to 60 μM concentration in 6 to 6.5 resin volume for 60 min. To saturate streptavidin resin with biotinylated proteins, 50 μl of streptavidin resin (Streptavidin Sepharose High Performance, Cytiva) was mixed with biotinylated MBP or MBP-PDZ at 40 to 50 μM concentration in 20× resin volume for 60 min. After saturation, resins were washed a single time [10 resin volume, holdup buffer: 50 mM tris (pH 7.5), 300 mM NaCl, and 1 mM TCEP, 0.22-μm filtered] and were depleted with biotin (10 resin volume, 10 min, holdup buffer supplemented with 100 μM biotin). Last, resins were washed two times (10 resin volume, holdup buffer).
(§3) For single-point nHU experiments carried out at ~10 μM bait concentration, 50 μl of saturated streptavidin resin was mixed with 200 μl of cell lysate (2 mg/ml). Titration experiments were carried out by mixing control and bait-saturated resin and keeping the total resin volume constant; e.g., ~5 μM bait concentration can be achieved by mixing 25 μl of bait-saturated streptavidin resin with 25 μl of control resin and 200 μl of cell lysate (2 mg/ml). Control and bait-saturated resins were prepared in larger amounts, and a serial dilution was prepared with these presaturated resins to achieve different resin ratios.
(§4) Unless specified elswhere, the nHU mixture was incubated at 4°C for 2 hours. After the incubation ended, the resin was separated from the supernatant by a brief centrifugation (15 s, 2000 g). Then, half of the supernatant was removed by pipetting without any delay to avoid any resin contamination; e.g., 100 μl of supernatant is collected if 200 μl of cell lysate was used as analyte. Alternatively, the supernatant can be centrifuged an additional time to clarify it further, removing any possible resin contamination. In principle, the separation of the supernatant should be as fast as possible since any delay can perturb the equilibrium. […] Alternatively, the resin can be separated from the supernatant using filter plates (e.g., various products of Millipore, Burlington, MA) or spin columns (e.g., Pierce spin cups—cellulose acetate filter from Thermo Fisher Scientific, Waltham, MA) to achieve faster separation.
The nHU samples were precipitated with trichloroacetic acid (TCA) 20% overnight at 4°C and centrifuged at 14,000 rpm for 10 min at 4°C. The protein pellets were washed twice with 1 ml of cold acetone and air-dried. The protein extracts were solubilized in 8 M urea, reduced with 5 mM TCEP for 30 min, and alkylated with 10 mM iodoacetamide for 30 min in the dark. Double digestion was performed at 37°C with 500 ng of endoproteinase Lys-C (Wako, Richmond, USA) for 4 hours, followed by fourfold dilution and an overnight digestion with 500 ng of trypsin (Promega, Charbonnieres les Bains, France). Peptide mixtures were then desalted on a C18 spin-column and dried on a speed vacuum.
(§5) Samples were analyzed using an Ultimate 3000 nano-RSLC coupled in line via a nano-electrospray ionization source, with an LTQ-Orbitrap ELITE mass spectrometer (Thermo Fisher Scientific, San Jose, CA) or with the Orbitrap Exploris 480 mass spectrometer (Thermo Fisher Scientific, Bremen, Germany) equipped with a high field asymmetric ion mobility spectrometry (FAIMS) module. […]

SCRIB_PDZ_2 = assay: nHU-MS, SCRIB_PDZ_2 bait, total Jurkat extracts (Exploris MS)
Text: as §1, §2, §3, §4
(§6) The nHU samples were precipitated with trichloroacetic acid (TCA) 20% overnight at 4°C and centrifuged at 14,000 rpm for 10 min at 4°C. The protein pellets were washed twice with 1 ml of cold acetone and air-dried. […]
as §5

SNX27_PDZ = assay: nHU-MS, SNX27_PDZ bait, total Jurkat extracts, series 2 (Exploris MS); settings: Jurkat, series 2, n = 3
Text: as §1, §2, §3, §4, §6, §5

TX1BP3_PDZ = assay: nHU-MS, TX1BP3_PDZ (TAX1BP3) bait, total Jurkat extracts (Exploris MS); settings: nHU-MS, total Jurkat extract
Text: as §1, §2, §3
Unless specified elswhere, the nHU mixture was incubated at 4°C for 2 hours. After the incubation ended, the resin was separated from the supernatant by a brief centrifugation (15 s, 2000 g). Then, half of the supernatant was removed by pipetting without any delay to avoid any resin contamination; e.g., 100 μl of supernatant is collected if 200 μl of cell lysate was used as analyte. […]
as §5

DLG1_PDZ_1 = assay: nHU-MS, DLG1_PDZ_1 bait, total Jurkat extracts (Exploris MS)
Text: as §1, §2
(§7) For single-point nHU experiments carried out at ~10 μM bait concentration, 50 μl of saturated streptavidin resin was mixed with 200 μl of cell lysate (2 mg/ml). […]
as §5

DLG1_PDZ_2 = assay: nHU-MS, DLG1_PDZ_2 bait, total Jurkat extracts (Exploris MS); settings: Jurkat extract
Text: as §1, §2, §7, §5

B1: EWSR1 (protein, UniProt Q01844 1-656, looked up)
RNA-binding protein EWS: MASTDYSTYSQAAAQQGYSAYTAQPTQGYAQTTQAYGQQSYGTYGQPTDVSYTQAQTTATYGQTAYATSYGQPPTGYTTPTAPQAYSQPVQGYGTGAYDTTTATVTTTQASYAAQSAYGTQPAYPAYGQQPAATAPTRPQDGNKPTETSQPQSSTGGYNQPSLGYGQSNYSYPQVPGSYPMQPVTAPPSYPPTSYSSTQPTSYDQSSYSQQNTYGQPSSYGQQSSYGQQSSYGQQPPTSYPPQTGSYSQAPSQYSQQSSSYGQQSSFRQDHPSSMGVYGQESGGFSGPGENRSMSGPDNRGRGRGGFDRGGMSRGGRGGGRGGMGSAGERGGFNKPGGPMDEGPDLDLGPPVDPDEDSDNSAIYVQGLNDSVTLDDLADFFKQCGVVKMNKRTGQPMIHIYLDKETGKPKGDATVSYEDPPTAKAAVEWFDGKDFQGSKLKVSLARKKPPMNSMRGGLPPREGRGMPPPLRGGPGGPGGPGGPMGRMGGRGGDRGGFPPRGPRGSRGNPSGGGNVQHRAGDWQCPNPGCGNQNFAWRTECNQCKAPKPEGFLPPPFPPPGGDRGRGGPGGMRGGRGGLMDRGGPGGMFRGGRGGDRGGFRGGRGMDRGGFGGGRRGGPGGPPGPLMEQMGGRRGGRGGPGKMDKGEHRQERRDRPY
SCRIB_PDZ_1; SCRIB_PDZ_1&Jurkat (Exploris)
  pKapp (nHU-MS): 4.689
SCRIB_PDZ_2; SCRIB_PDZ_2&Jurkat (Exploris)
  pKapp (nHU-MS): 4.691

B2: NBDY: Negative regulator of P-body association (protein, UniProt A0A0U1RRE5 1-68, looked up)
Negative regulator of P-body …: MGDQPCASGRSTLPPGNAREAKPPKKRCLLAPRWDYPEGTPNGGSTTLPSAPPPASAGLKSHPPPPEK
SNX27_PDZ
  BI: 0.08384
  Difference log2: -0.1263
  Ratio SNX27/MBP: 0.9162
SNX27_PDZ; apparent, not filtered for significance
  pKd: 3.962
TX1BP3_PDZ; TX1BP3_PDZ bait vs MBP
  BI: 0.0117
TX1BP3_PDZ; TX1BP3_PDZ bait, not filtered for significance (pKdsign N/D)
  pKd: 3.0735
TX1BP3_PDZ; TX1BP3_PDZ vs MBP
  Difference log2: -0.01698
TX1BP3_PDZ; TX1BP3_PDZ
  Ratio TX1BP3/MBP: 0.9883
SCRIB_PDZ_1; nHU-MS, SCRIB_PDZ_1, total Jurkat extract
  Ratio SCRIB_1/MBP: 1.029
SCRIB_PDZ_1; nHU-MS, SCRIB_PDZ_1 bait vs MBP, total Jurkat extract
  BI: -0.02908
SCRIB_PDZ_1; nHU-MS, SCRIB_PDZ_1 vs MBP, total Jurkat extract
  Difference log2: 0.04136
SCRIB_PDZ_2; nHU-MS, SCRIB_PDZ_2, total Jurkat extract
  Ratio SCRIB_2/MBP: 1.014
SCRIB_PDZ_2; nHU-MS, SCRIB_PDZ_2 bait vs MBP, total Jurkat extract
  BI: -0.01381
SCRIB_PDZ_2; nHU-MS, SCRIB_PDZ_2 vs MBP, total Jurkat extract
  Difference log2: 0.01978
DLG1_PDZ_1; DLG1_PDZ_1, total Jurkat extract
  Ratio DLG1_1/MBP: 1.036
DLG1_PDZ_1; DLG1_PDZ_1 bait vs MBP, total Jurkat extract
  BI: -0.03605
DLG1_PDZ_1; DLG1_PDZ_1 vs MBP, total Jurkat extract
  Difference log2: 0.0511
DLG1_PDZ_2; DLG1_PDZ_2 bait vs MBP
  Difference log2: 0.1631
  Ratio DLG1_2/MBP: 1.12
DLG1_PDZ_2; DLG1_PDZ_2 bait
  BI: -0.1197
